Test results reported in patent publication US20200277377A1 (WUXI BIOLOGICS SHANGHAI, published 2020).
Positions count from the first letter of the chain named. Each block holds one binder with its values, some of them ahead of it.

Legend:
[1] = biological target: T1, Murine CTLA-4.ECD-6×His (mouse, UniProt P09793 36-161); assay: ELISA, coated mouse CTLA-4.ECD-6×His
T1 construct: extracellular domain; Bought; also called mouse CTLA-4.ECD-6×His; mouse CTLA-4 ECD
Procedure: (§1) ELISA was used to test binding of anti-human CTLA-4 antibodies to human, murine and cynomolgus monkey CTLA-4 protein. A 96-well plate was coated with human CTLA-4.ECD-6×His (1.0 μg/mL), cynomoguls monkey CTLA-4.ECD-6×His (0.5 μg/mL) or mouse CTLA-4.ECD-6×His (0.5 μg/mL) at 4° C. for 16-20 hours. After 1 hour blocking with 2% BSA in DBPS, testing antibodies, as well as positive and negative control antibodies were added to the plates and incubated at room temperature for 1 hour. The binding of the antibodies to the plates were detected by HRP-conjugated goat anti-human IgG antibody (1:5000 dilution) with 1 hour incubation. The color was developed by dispensing 100 μL of TMB substrate for 8 mins, and then stopped by 100 μL of 2N HCl.

[2] = biological target: T2, cynomolgus monkey CTLA-4 ECD-6×His (cynomolgus monkey); assay: ELISA, coated cynomolgus monkey CTLA-4.ECD-6×His
T2 construct: extracellular domain; Bought; also called cynomoguls monkey CTLA-4.ECD-6×His
Procedure: as §1

[3] = biological target: T3, hCTLA-4.ECD.hFc-Biotin (human, UniProt P16410 36-161, biotinylated (sites not given)); assay: FACS competition, hCTLA-4.ECD.hFc-Biotin on CD80-expressing CHO cells
T3 construct: extracellular domain; also called Biotinylated CTLA-4.ECD.hFc; biotinylated human CTLA4.ECD.hFc; not shown: human Fc tag (hFc)
T3 sequence (looked up): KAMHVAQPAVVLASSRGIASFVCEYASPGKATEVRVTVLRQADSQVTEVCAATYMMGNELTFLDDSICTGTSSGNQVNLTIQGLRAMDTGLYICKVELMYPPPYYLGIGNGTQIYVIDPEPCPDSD
Procedure: PE conjugated Streptavidin was purchased from eBioscience (Catalog number 12-4317).
Then the mixtures of antibody and CTLA-4 were added to the cells and incubated for 1 hour at 4° C. The cells were washed two times with 200 μL FACS buffer (DPBS containing 1% BSA). Streptavidin PE 1 to 333 diluted in FACS buffer was added to the cells and incubated at 4° C. for 1 hour. Additional washing steps were performed two times with 200 μL FACS buffer followed by centrifugation at 1500 rpm for 4 minutes at 4° C. Finally, the cells were resuspended in 100 μL FACS buffer and fluorescence values were measured by flow cytometry and analyzed by FlowJo.

[4] = biological target: T4, human CTLA-4.ECD.hFc (human, UniProt P16410 36-161); assay: competition ELISA, coated human CTLA-4.ECD.hFc, competitor CD80-6×His
T4 construct: extracellular domain; also called hCTLA-4.ECD.hFc; not shown: human Fc tag (hFc)
T4 sequence (looked up): T3 sequence (looked up)
Procedure: Plates were coated with human CTLA-4.ECD.hFc (0.5 μg/mL) at 4° C. for 16-20 hours. […] After washing three times with PBS containing 0.05% Tween 20, biotinylated anti-His tag antibody was 1:2000 diluted and added. The plates were incubated at room temperature for 1 hour. The bound ligands were detected by HRP conjugated streptavidin (1:20000). The color was developed by dispensing 100 μL of TMB substrate for 8 mins, and then stopped by 100 μL of 2N HCl.

[5] = biological target: T5, human CTLA-4.ECD-6×His (human, UniProt P16410 36-161); assay: SPR, antibody captured on anti-human Fc, CTLA-4.ECD-6×His as analyte, 1:1 fit
T5 construct: extracellular domain; also called WBP316.hCTLA-4.ECD-6×His; hCTLA4-His (WT)
T5 sequence: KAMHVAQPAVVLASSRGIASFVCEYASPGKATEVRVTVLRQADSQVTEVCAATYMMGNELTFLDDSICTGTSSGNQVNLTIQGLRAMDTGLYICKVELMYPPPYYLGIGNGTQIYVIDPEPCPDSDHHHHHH
Procedure: (§2) Biacore T200, Series S Sensor Chip CMS, Amine Coupling Kit, and 10×HBS-EP were purchased from GE Healthcare. […] In immobilization step, the activation buffer was prepared by mixing 400 mM EDC and 100 mM NHS immediately prior to injection. The CM5 sensor chip was activated for 420 s with the activation buffer. 30 μg/mL of goat anti-human IgG Fcγ antibody in 10 mM NaAc (pH 4.5) was then injected to Fc1-Fc4 channels for 200 s at a flow rate of 5 μL/min. The chip was deactivated by 1 M ethanolamine-HCl (GE). Then the antibodies were captured on the chip. Briefly, 4 μg/mL antibodies in running buffer (HBS-EP+) was injected individually to Fc3 channel for 30 s at a flow rate of 10 μL/min. […] Regeneration buffer (10 mM Glycine pH 1.5) was injected at 10 μL/min for 30 s following every dissociation phase.
(§3) The binding kinetics of these antibodies were measured using SPR. The antibodies were captured on immobilized anti-human Fc and CTLA-4-ECD at different concentration was injected orderly. The sensorgrams for reference channel and buffer channel were subtracted from the test sensorgrams. The data was used for 1:1 binding analysis on human, monkey and mouse CTLA-4.ECD-6×His.

[6] = biological target: T2, cynomolgus monkey CTLA-4 ECD-6×His; assay: as above
Procedure: as §2, §3

[7] = biological target: T6, hCTLA4_ECD.His (N145Q) (human, UniProt P16410 36-161); assay: capture ELISA: W3162-1.146.19-z12 captured on anti-human Fc, hCTLA4-His mutein supernatant titrated (ng/ml), HRP-anti-His [B]
T6 construct: extracellular domain; Glycosylation-site mutein, expressed in HEK293F cells; also called CTLA-4 N145Q
T6 sequence (looked up): T3 sequence (looked up) with N110Q

[8] = biological target: T1, Murine CTLA-4.ECD-6×His; assay: ELISA, antibody titrated on coated mouse CTLA-4.ECD-6xHis, OD450 [C) Murine CTLA-4]
Procedure: as §1

[9] = biological target: T5, human CTLA-4.ECD-6×His; assay: capture ELISA: W3162-1.154.8-z35 captured on anti-human Fc, hCTLA4-His supernatant titrated (ng/ml), HRP-anti-His [C]

EC50 [1]: 0.19 nM | EC50 [2]: 0.05 nM | IC50 [3]: 6.6 nM | IC50 [4]: 0.87 nM | Kd [5]: 0.477 nM | koff [5]: 9.82e-05 s⁻¹ | kon [5]: 206000 M⁻¹ s⁻¹ | Kd [6]: 1.92 nM | koff [6]: 0.000331 s⁻¹ | kon [6]: 173000 M⁻¹ s⁻¹ | EC50 (read off the curve) [7]: ~90 ng/mL
B1: W3162-1.146.19-z12-uAb.IgG1K (antibody, V domains shown)
VH: QVQLQESGPGLVKPSETLSLTCSVTYHTITSGYDWTWIRKPPGKGMEWIGYISYSGNTNYNPSLKSRVTISRDTSKNQFFLKLSSVTAADTAVYYCASMMVPHYYVMDAWGQGTLVTVSS
VL: DIVMTQTPLSLSVTPGQPASISCRSSQSLLNSDGNTYLYWYLQKPGQSPQLLIYLVSKLGSGVPNRFSGSGSGTDFTLKISRVEAEDVGVYYCVQGTHDPWTFGGGTKVEIK
notes: Humanized; label says IgG1K

EC50 [2]: 0.05 nM | IC50 [3]: 0.07 nM | IC50 [4]: 0.63 nM | Kd [5]: 0.0968 nM | koff [5]: 0.000119 s⁻¹ | kon [5]: 1.23e+06 M⁻¹ s⁻¹ | Kd [6]: 0.131 nM | koff [6]: 0.000122 s⁻¹ | kon [6]: 932000 M⁻¹ s⁻¹ | binding result [8]: no binding (tested: about 7 nM) | EC50 (read off the curve) [9]: ~3 ng/mL
B2: W3162_1.154.8-z35-uAb.IgG1K (antibody, V domains shown)
VH: QVQLVQSGAEVKKPGSSVKVSCKASGYTFTNYFMNWVRQAPGQGLEWMGRVDPEQGRADYAEKFKKRVTITADKSTSTAYMELSSLRSEDTAVYYCARRAMDNYGFAYWGQGTLVTVSS
VL: EIVLTQSPDFQSVTPKEKVTITCSANSALSYMYWYQQKPDQSPKLWVHGTSNLASGVPSRFSGSGSGTDFTLTINSLEAEDAATYYCHHWSNTQWTFGGGTKVEIK
notes: Humanized; label says IgG1K
